# Results published in publication PMC5339894, “G196 epitope tag system: a novel monoclonal antibody, G196, recognizes the small, soluble peptide DLVPR with high affinity” (Scientific Reports, 2017).
# Where no end group is shown, it is not given here.
# T1: synthetic peptide GSDLVPRGS (synthetic)
# T1 construct: source: synthetic peptide (Tufts University Core Facility)
# T1 chain: GSDLVPRGS
# Key:
# mAb G196 = assay: Western blot epitope mapping of bacterially expressed GST proteins with mAb G196; assay type: binding, mouse; settings: purified or bacterially expressed GST proteins, SDS-PAGE, denaturing conditions
# Method: To confirm that the G196 epitope is located on the C-terminal extension of the 4T-2 fragment, and to further determine the precise location of the G196 mAb epitope, double-stranded oligonucleotides encoding peptides containing the C-terminal extension were inserted into the BamHI/EcoRI restriction sites within the pGEX-6P-1 vector. Total protein lysates were prepared from Escherichia coli that had been transformed with individual GST fusion protein constructs.
# All short 4T-2 fragments were generated by annealing complementary oligos. The oligos used to synthesize the indicated fragments are summarized (Fasmac, Kanagawa, Japan) in Supplementary Table 2. Annealing reaction mixtures contained equimolar amounts of each oligo and the reactions were performed in a thermal cycler, with initial denaturation at 98 °C for 3 min, followed by a temperature decrease of 2 °C every 20 s down to 4 °C to allow the oligos to anneal slowly. The oligos contained the BamHI/EcoRI restriction sites and the 4T-2 fragments were cloned into these restriction sites within the pGEX-6P-1 vector (GE Healthcare, Buckinghamshire, England).
# A fragment of the GST gene, encoding residues 2–212, was prepared by polymerase chain reaction (PCR) amplification using the Pfu polymerase (BioAcademia) and the pGEX-6P-1 plasmid as the template. […]
# [1] = tested on: anti-FLAG M2 mAb affinity column; settings: mild pH (pH 3.5–4.4); cited from earlier work
# From the text: Previously, we studied the subcellular localization of myocardin-related transcription factor (MRTF)-B, a shuttle protein between the nucleus and cytoplasm that is expressed in response to various stimuli.
# [2] = biological target: T1, synthetic peptide GSDLVPRGS; assay: ITC; VP-ITC, 25 C; cell: 25 uM G196 Fab in 20 mM Tris-HCl (pH 8.0), 150 mM NaCl; peptide (500 uM) injected; single-site model; settings: both partners purified
molecule,measurement,setting,value
6P-12: GST fusion protein with C-terminal extension fragment inserted in pGEX-6P-1 ({GST}-SDLVPRGSP),recognition by mAb G196 in Western blot,mAb G196,detected
N=C(N)NCCC[C@H](N)C(=O)O [Arg],dissociation of FLAG-tagged proteins from column,[1],effectively dissociate FLAG-tagged proteins
"G196 antigen binding fragment (Fab) (Fab, V domains shown, Fab part of the heavy chain of m1; chain in PDB 5H2B; as the light chain of m1; also called G196 Fab; G196 IgG Fab; source: purified mAb G196 IgG fragmented using papain, Fab purified by protein A chromatography) VH: QVKLQESGAELVKPGASVKLSCKASGYTFTNYWMHWVKLRPGQGFEWIGEINPSNGGSNYNEKFKRKATLTVDKSSSTAYMQLSSLTSEDSAVFYCSIWDSYFDYWGQGTTLTVSS VL: NIVMTQSPKSMSMSVGERVTLTCKASENVVTYVSWYQQKPEQSPKLLIYGASNRYTGVPDRFTGSGSATDFTLTISSVQAEDLADYHCGQGYSYPYTFGGGTKLEIK",Kd,[2],1.25 ± 0.77 nM
same,dH,[2],-15.3 kcal/mol
same,stoichiometry N,[2],1.2 ± 0.05
